According to US20260234738A1 (Regeneron, published 2026):
Residue numbers refer to the chain shown, from its start.

B1: mAb10967 (antibody, V domains shown)
VH: EVQLVESGGGLVQPGGSLRLSCAASGFTVSSNYMSWVRQAPGKGLEWVSVIYPGGSTFYADSVKGRFTISRDNSKNTLYLQMNSLRAEDTAVYYCARDQRDFAWGQGTLVTVSS
VL: DIQMTQSPSSLSASVGDRVTITCQASQDISNYLNWYQQKPGKAPKLLIYDASNLETGVPSRFSGSGSGTDFTFTISGLQPEDIATYYCQQYDNLPPTFGQGTRLEIKR
B2: mAb10954 (antibody, V domains shown)
VH: EVQLVESGGGLVQPGGSLRLSCAASGITVSSNYMSWVRQAPGKGLEWVSLIYSGGSTYYADSVKGRFTISRDNSKNTLYLQMNSLRVEDTAVYYCARDHGMAAAGYNYWGQGTLVTVSS
VL: B1 VL with S30N, N31K, S76N, G77S, I83F, Y87F, T97A, R103K, L104V
B3: mAb10955 (antibody, V domains shown)
VH: EVQLVESGGGLVQPGGSLRVSCAASGFTVSRNYMSWVRQAPGKGLEWVSVIYSGGSTFYADSVKGRFTISRDNSKNTLYLQMNSLRAEDTAIYYCARYIPRFDPWGQGTLVTVSS
VL: B1 VL with Y36F, K42R, G77S, P96I
B4: mAb10966 (antibody, V domains shown)
VH: EVQLVESGGGLVQPGGSLRLSCAASGLTVSSNYMSWVRQAPGKGLEWVSVIYSGGSTFYADSVKGRFTISRDNSKNTLYLQMNSLRPEDTAVYYCAREGRIAATGYGMDVWGQGTTVTVSS
VL: not shown
B5: mAb10971 (antibody, V domains shown)
VH: EVQLVESGGGLIQPGGSLRLSCAASGVTVSSNYMSWVRQAPGKGLEWVSVIYSGGSTFYSDSVKGRFSISRDNSKNTLYLQMNSLRAEDTAVYYCARDLYYYGMDVWGQGTTVTVSS
VL: DIQLTQSPSFLSASVGDRVTITCRASQGISTYLAWYQQKPGKAPKLLIYAASTLQSGVPSRFSGSGSGTEFTLTISSLQPEDFATYYCQQLDSYPGLTFGGGTKVEIKR
B6: mAb10956 (antibody, V domains shown)
VH: B5 VH with I12V, V27L, S60A, S68T, Y100I, Y101K
VL: not shown
B7: mAb10957 (antibody, V domains shown)
VH: B5 VH with I12V, S60A, S68T, Y79F, A87I, Y100G, Y101P
VL: B5 VL with T31S, E70Q, T72I, D92N, L97F, G101P, E106D
B8: mAb10964 (antibody, V domains shown)
VH: QVQLQESGPGLVKPSETLSLTCTVSGGSINNYYWIWIRQPPGKGLEWIGYIYHSGSTNYNPSLKSRVTISVDTSKNQFSLKVSSVTAADTAVYYCANMVRGVYEDDYWGQGTLVTVSS
VL: DIQMTQSPSSLSASVGDRVTITCRASQSISNYLNWYQQKPGKAPKLLIFAASSLRSGVPSRFSGSGSGTDFTLTISSLHPEDFATYYCQQNYNTPLTFGPGTKVDIKR

Each binder was assayed against SARS-COV-2 RBD extracellular domain expressed with a C-terminal mouse IgG2a (SARS-CoV-2).

| Binder | Kd | t½ | koff | kon |
| --- | --- | --- | --- | --- |
| B1 | ≤ 0.0251 nM | ≥ 19.2 h |  |  |
| B2 | ≤ 0.0173 nM | ≥ 19.2 h |  |  |
| B3 | 0.0592 nM | 8.23 h |  |  |
| B4 | ≤ 0.0249 nM | ≥ 19.2 h |  |  |
| B5 | ≤ 0.0253 nM | ≥ 19.2 h | ≤ 1e-05 s⁻¹ | 395000 M⁻¹ s⁻¹ |
| B6 | 0.395 nM | 1.3 h |  |  |
| B7 | ≤ 0.0279 nM | ≥ 19.2 h |  |  |
| B8 | ≤ 0.007 nM | ≥ 19.2 h |  |  |
